# Measured values taken from patent US20230135471A1, “UBIQUITIN VARIANTS WITH IMPROVED AFFINITY FOR 53BP1” (Integrated DNA Technologies, Inc., priority 2021, published 2023).
# Target: 53BP1 fragment (a.a. 1221-1718) fused to an adenylate cyclase fragment (two-hybrid) (UniProt Q12888)
# Assay: cell-based or functional assay
Substance,Experiment 1 Average Enrichment [log2],Experiment 1 Rep 1 Enrichment [log2],Experiment 1 Rep 2 Enrichment [log2],Experiment 2 Average Enrichment [log2],Experiment 2 Rep 1 Enrichment [log2],Experiment 2 Rep 2 Enrichment [log2]
i53 + P38N two-hybrid fusion (designed binder),1.02,2.28,-0.25,-1.49,-1.91,-1.07
i53 + P38V two-hybrid fusion (designed binder),1.21,1.16,1.26,0.05,0.38,-0.29
i53 + E18H two-hybrid fusion (designed binder),1.17,0.39,1.96,0.07,0.24,-0.11
i53 + S49D two-hybrid fusion (designed binder),0.41,0.11,0.71,0.44,0.39,0.49
i53 + E18N two-hybrid fusion (designed binder),-0.45,0.34,-1.23,0.1,-0.64,0.85
i53 + K33E two-hybrid fusion (designed binder),2.71,2.38,3.03,1.27,1.48,1.05
i53 + R74L two-hybrid fusion (designed binder),1.11,1.35,0.88,0.85,0.95,0.76
i53 + K33I two-hybrid fusion (designed binder),2.03,1.91,2.14,0.91,1.32,0.5
i53 + T7V two-hybrid fusion (designed binder),0.33,0.24,0.42,0.02,-0.04,0.09
i53 + K33T two-hybrid fusion (designed binder),1.77,1.9,1.63,1.41,1.48,1.34
i53 + Q41I two-hybrid fusion (designed binder),0.3,0.3,0.3,-0.08,0.08,-0.25
i53 + M1T two-hybrid fusion (designed binder),0.68,0.79,0.56,0.61,0.63,0.6
i53 + R54H two-hybrid fusion (designed binder),0.87,0.78,0.96,0.49,0.43,0.55
i53 + R74E two-hybrid fusion (designed binder),0.38,0.53,0.23,-0.1,0.14,-0.35
i53 + K29L two-hybrid fusion (designed binder),0.11,0.15,0.07,0.26,0.21,0.3
i53 + R74C two-hybrid fusion (designed binder),0.81,0.64,0.99,0.65,0.68,0.63
i53 + P38A two-hybrid fusion (designed binder),0.06,-0.41,0.53,0,-0.16,0.15
i53 + T9S two-hybrid fusion (designed binder),0.4,0.34,0.47,0.18,0.19,0.17
i53 + N25C two-hybrid fusion (designed binder),0.13,0.45,-0.19,0.26,0.31,0.21
i53 + N60E two-hybrid fusion (designed binder),0.66,0.9,0.43,0.25,0.13,0.38
i53 + D39G two-hybrid fusion (designed binder),-0.21,-0.2,-0.22,0.06,0.6,-0.49
i53 + E16N two-hybrid fusion (designed binder),0.11,-0.32,0.54,0.26,0.34,0.18
i53 + R74K two-hybrid fusion (designed binder),0.12,0.04,0.21,0.13,0.1,0.17
i53 + E18S two-hybrid fusion (designed binder),0.48,0.47,0.49,0.33,-0.01,0.67
i53 + M1F two-hybrid fusion (designed binder),0.8,0.71,0.9,0.36,0.39,0.33
i53 + T14D two-hybrid fusion (designed binder),2.88,2.9,2.86,1.53,1.65,1.4
